Target: T1, human endogenous C5a (eC5a) generated in human zymosan-activated plasma (human, UniProt P01031 678-751)
T1 sequence: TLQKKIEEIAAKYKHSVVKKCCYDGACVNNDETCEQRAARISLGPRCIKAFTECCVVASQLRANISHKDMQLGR
Assay: cell-based or functional assay

B1: IFX-1 (antibody, IgG4, V domains shown)
VH: QVQLQQSGPQLVRPGTSVKISCKASGYSFTTFWMDWVKQRPGQGLEWIGRIDPSDSESRLDQRFKDRATLTVDKSSSTVYMQLSSPTSEDSAVYYCARGNDGYYGFAYWGQGTLVTVSS
VL: DIVLTQSPASLAVSLGQRATISCKASQSVDYDGDSYMKWYQQKPGQPPKLLIYAASNLQSGIPARFSGSGSGTDFTLNIHPVEEEDAATYYCQQSNEDPYTFGGGTKLEIK
blocking of eC5a-induced CD11b up-regulation on human granulocytes (ZAP-CD11b assay), Ab:Ag ratios 1:1 and 2:1: ≤ 98% | decrease of CD11b expression on human granulocytes (ZAP-CD11b assay, flow cytometry MFI), Ab:Ag molar ratio 0.5:1: > 80%
